According to patent US20060083734A1, “Composition and method for repairing nerve damage and enhancing functional recovery of nerve” (priority 2004, published 2006):

Legend:
Assay type in all cases: in vivo, rat
MCA occluded rats [1] = test: Infarct volume analysis by TTC staining after MCA occlusion and reperfusion; conditions: Long-Evans rats, 1 hr MCA occlusion, end of 4th week after FCI injury, topical GDNF 1 μg, mean±SEM, n=6
Experimental: (§1) Animals: The example conforms to the Guide for the Care and Use of Laboratory Animals, published by the US National Institutes of Health (NIH publication NO. 85-23, revised 1996). Male Long-Evans rats (National Lab. Animal Breeding and Research Center) weighing 300-350 g were used in this study. These animals were housed in a room with controlled temperature (24±1° C.) and humidity (55±5%) under a 12:12 h light-dark cycle. They were allowed free access to food and water.
Surgical procedure: The technique was a modification of the method of Huang et al (Huang S S, Tsai S K, Chih C L, Chiang L Y, Hsieh H M, Teng C M, Tsai M C. Neuroprotective effect of hexasulfobutylated C60 on rats subjected to focal cerebral ischemia. Free Radic Biol Med. 2001;30:643-649). In brief, each male Long-Evans rat was anesthetized by inhalation of a nitrous oxide/oxygen/halothane (69%:30%:1%) mixture during surgical preparation. Body temperature was maintained during surgery at 37±0.5° C. with a heating pad servo-controlled by a rectal probe. […] Measurements were performed before, during and right after unilateral MCA occlusion.
Focal ischemic infarcts were produced in the right lateral cerebral cortex in the territory of the MCA. Both common carotid arteries were exposed by midline anterior cervical incision. […]

MCA occluded rats [2] = test: Accelerating rotarod test after FCI injury; conditions: topical GDNF 1 μg
Experimental: as §1
(§2) Surgical procedure: The technique was a modification of the method of Huang et al (Huang S S, Tsai S K, Chih C L, Chiang L Y, Hsieh H M, Teng C M, Tsai M C. Neuroprotective effect of hexasulfobutylated C60 on rats subjected to focal cerebral ischemia. Free Radic Biol Med. 2001;30:643-649). […]
The accelerating rotarod was used to assess motor deficit following ischemic injury in rats (Hamm R J, Pike B R, O'Dell D M, Lyeth B G, Jenkins L W. The rotarod test: an evaluation of its effectiveness in assessing motor deficits following traumatic brain injury. J Neurotrauma. 1994; 11:187-196). The rats were placed on rungs of the accelerating rotarod and the time the animals remained on the rotarod was measured. […] The time in seconds at which each animal fell off the rungs was recorded. […]
(§3) Statistics. Data are expressed as mean±standard error of mean (S.E.M.). […]

MCA occluded rats [3] = test: Grasping power test after FCI injury; conditions: topical GDNF 1 μg
Experimental: as §1, §2
The grasping power test was a modification of the method of Bertelli et al (Bertelli J A, Mira J C. The grasping test: a simple behavioral method for objective quantitative assessment of peripheral nerve regeneration in the rat. J Neurosci Methods. 1995;59:151-155). […] Rats were allowed to grasp the bar while being lifted by the tail with increasing firmness until they loosened their grip and the grasping power was scored.
as §3

[4] = end of 1st week after FCI injury
[5] = end of 4th week after FCI injury

B1: Glial cell line-derived neurotrophic factor (protein, UniProt P39905 78-211, looked up)
Glial cell line-derived …: SPDKQMAVLPRRERNRQAAAANPENSRGKGRRGQRGKNRGCVLTAIHLNVTDLGLGYETKEELIFRYCSGSCDAAETTYDKILKNLSRNRRLVSDKVGQACCRPIAFDDDLSFLDDNLVYHILRKHSAKRCGCI
notes: GDNF (1 μg) dissolved in HBSS solution, topically applied
B1 was tested, and the infarct volume (MCA occluded rats [1]) was 108.0±12.1 mm^3, the “mean latency to stay on the rotarod, of baseline” value (MCA occluded rats [2]; [4]) was 50.3% and the “mean latency to stay on the rotarod, of baseline” value (MCA occluded rats [2]; [5]) was 67.3%. The “mean value of grasping power, of baseline” value (MCA occluded rats [3]; [4]) was 71.7% and the “mean value of grasping power, of baseline” value (MCA occluded rats [3]; [5]) was 97.6%.
